Measurements reported in the Immune Epitope Database (IEDB).

Experiments:
HLA-A*01:01 [1] = experiment: IEDB peptide-MHC binding, purified MHC/direct/fluorescence; filed as Kd, often an IC50 or EC50 that approximates it; ≥ and ≤ were set here for values at or beyond the usual limits of such assays
HLA-B*40:01 = experiment: IEDB peptide-MHC binding, purified MHC/competitive/radioactivity; filed as Kd, often an IC50 or EC50 that approximates it; ≥ and ≤ were set here for values at or beyond the usual limits of such assays
HLA-B*44:02 = experiment: as above
HLA-B*44:03 = experiment: as above
HLA-A*32:01 = experiment: as above
HLA-A*30:01 = experiment: as above
HLA-A*03:01 = experiment: as above; settings: source organism: Dengue virus 4 Philippines/H241/1956
HLA-A*24:02 = experiment: IEDB peptide-MHC binding, purified MHC/competitive/fluorescence; ≥ and ≤ were set here for values at or beyond the usual limits of such assays
HLA-B*53:01 = experiment: IEDB peptide-MHC binding, purified MHC/competitive/radioactivity; filed as Kd, often an IC50 or EC50 that approximates it; ≥ and ≤ were set here for values at or beyond the usual limits of such assays
HLA-A*26:01 = experiment: as above
HLA-A*11:01 = experiment: IEDB peptide-MHC binding, purified MHC/direct/fluorescence; filed as Kd, often an IC50 or EC50 that approximates it; ≥ and ≤ were set here for values at or beyond the usual limits of such assays; settings: source organism: Homo sapiens
HLA-B*15:01 = experiment: as above; settings: source organism: Homo sapiens
HLA-A*69:01 = experiment: as above; settings: source organism: Homo sapiens
HLA-A*02:01 [2] = experiment: IEDB peptide-MHC binding, purified MHC/competitive/fluorescence; ≥ and ≤ were set here for values at or beyond the usual limits of such assays
HLA-A*02:01 [3] = experiment: IEDB peptide-MHC binding, purified MHC/competitive/fluorescence; filed as Kd, often an IC50 or EC50 that approximates it; ≥ and ≤ were set here for values at or beyond the usual limits of such assays
HLA-A*30:02 = experiment: IEDB peptide-MHC binding, purified MHC/competitive/radioactivity; filed as Kd, often an IC50 or EC50 that approximates it; ≥ and ≤ were set here for values at or beyond the usual limits of such assays
HLA-A*01:01 [4] = experiment: as above
HLA-A*29:02 = experiment: as above
HLA-B*58:01 = experiment: IEDB peptide-MHC binding, purified MHC/direct/fluorescence; filed as Kd, often an IC50 or EC50 that approximates it; ≥ and ≤ were set here for values at or beyond the usual limits of such assays; settings: source organism: Homo sapiens
HLA-B*07:02 = experiment: as above; settings: source organism: Homo sapiens
HLA-A*02:06 = experiment: IEDB peptide-MHC binding, purified MHC/competitive/radioactivity; filed as Kd, often an IC50 or EC50 that approximates it; ≥ and ≤ were set here for values at or beyond the usual limits of such assays; settings: source organism: Dengue virus 1 Brazil/97-11/1997
[5] = source organism: Dengue virus 2 Jamaica/1409/1983
[6] = source organism: Vaccinia virus WR
[7] = source organism: Dengue virus 3 Martinique/1243/1999
[8] = source organism: Dengue virus 4 Philippines/H241/1956
[9] = source organism: Mammarenavirus brazilense
[10] = source organism: Mammarenavirus tacaribeense
[11] = source organism: Dengue virus 1 Brazil/97-11/1997

With AARISSCLK the Kd (HLA-A*01:01 [1]; source organism: Yersinia pestis) was ≥ 20 µM.

For AEPPFGDSYI, the Kd (HLA-B*40:01; [5]) was 1.99 µM, the Kd (HLA-B*44:02; [5]) was 0.432 µM and the Kd (HLA-B*44:03; [5]) was 0.0793 µM.

ALATFTVNI gave a Kd (HLA-A*32:01; [6]) of 0.00607 µM.

ASKTINALV showed a Kd (HLA-A*30:01; [6]) of 0.000175 µM.

Work on AVSRGSAKLQ yielded a Kd (HLA-A*30:01; [7]) of 1.29 µM.

For AWRTATLIL, the Kd (HLA-A*30:01; [7]) was 0.592 µM.

Work on CLRRRVTRK yielded a Kd (HLA-A*03:01) of 0.0027 µM and a Kd (HLA-A*30:01; [8]) of 3.14 µM.

With DFQESADSF the IC50 (HLA-A*24:02; source organism: Zaire ebolavirus) was 55 µM.

Sequence EPDYEVDEDI has a Kd (HLA-B*53:01; [8]) of 1.17 µM.

ETRAETWMSS was tested, and the Kd (HLA-A*32:01; [8]) was ≥ 47.2 µM and the Kd (HLA-A*26:01; [8]) was 0.504 µM.

EVDPIGHLY was tested, and the Kd (HLA-A*11:01) was 3.36 µM, the Kd (HLA-B*15:01) was 3.71 µM and the Kd (HLA-A*69:01) was 4.39 µM.

Work on FEEYKRSGIL yielded a Kd (HLA-B*40:01; [8]) of 0.0187 µM.

FEKQLGQVML showed a Kd (HLA-B*40:01; [5]) of 0.13 µM.

Sequence FPQSNAPIQ has a Kd (HLA-B*53:01; [7]) of 0.0698 µM.

With GEIGAIALD the Kd (HLA-B*44:03; [7]) was 0.907 µM.

In the case of GILPWTKIS, the IC50 (HLA-A*24:02; [6]) is reported as ≥ 133 µM and the IC50 (HLA-A*02:01 [2]; [6]) is reported as 17.2 µM.

In the case of GVSGGAWVDL, the Kd (HLA-A*32:01; [8]) is reported as ≥ 69.9 µM.

Work on HIKNDFMIK yielded a Kd (HLA-A*30:01; [6]) of 0.0016 µM.

Work on HIYFVSLLL yielded a Kd (HLA-A*32:01; [6]) of 0.0153 µM.

HLGNVKYLV was tested, and the Kd (HLA-A*02:01 [3]; source organism: Plasmodium falciparum) was 0.0065 µM.

With HTASGEHSL the Kd (HLA-A*30:01; [9]) was 8.48 µM, the Kd (HLA-A*30:02; [9]) was 5.64 µM and the Kd (HLA-A*32:01; [9]) was 11.9 µM. For the same sequence, the Kd (HLA-A*01:01 [4]; [9]) was ≥ 25.1 µM, the Kd (HLA-A*26:01; [9]) was 16.5 µM and the Kd (HLA-A*29:02; [9]) was ≥ 78.9 µM.

HYAYMVPGW was tested, and the IC50 (HLA-A*24:02; source organism: West Nile virus) was 0.22 µM.

In the case of HYDQKLGSY, the Kd (HLA-A*30:01; [10]) is reported as 5.54 µM, the Kd (HLA-A*30:02; [10]) is reported as 0.0898 µM and the Kd (HLA-A*32:01; [10]) is reported as 19.4 µM. The Kd (HLA-A*01:01 [4]; [10]) was 11 µM, the Kd (HLA-A*26:01; [10]) was ≥ 36 µM and the Kd (HLA-A*29:02; [10]) was ≥ 20.3 µM.

IGEWAFWEN showed an IC50 (HLA-A*24:02; source organism: Sudan ebolavirus) of 58.8 µM.

IGFLVLWIGT was tested, and the Kd (HLA-A*32:01; [8]) was ≥ 69.9 µM.

IHAKHEWMTT gave a Kd (HLA-A*32:01; [5]) of 5.23 µM.

Work on ILLFVIVIY yielded a Kd (HLA-A*32:01; [6]) of 0.952 µM.

ISLICGHSY showed a Kd (HLA-A*11:01) of 8.98 µM, a Kd (HLA-B*58:01) of 0.022 µM and a Kd (HLA-A*01:01 [1]; source organism: Homo sapiens) of 11 µM. The Kd (HLA-B*15:01) was 0.108 µM, the Kd (HLA-B*07:02) was 17.4 µM and the Kd (HLA-A*69:01) was 5.28 µM.

ISQHQHLAI gave a Kd (HLA-A*32:01; [6]) of 0.107 µM.

ITDVIVQSI showed a Kd (HLA-A*32:01; [6]) of 0.256 µM.

For ITFLRVLSI, the Kd (HLA-A*32:01; [8]) was 0.1 µM.

ITTDSRCPTQ was tested, and the Kd (HLA-A*30:01; [7]) was 0.866 µM.

KAKEMNALS was tested, and the Kd (HLA-A*30:01; [6]) was 0.0505 µM.

Work on KAMWKYPFS yielded a Kd (HLA-A*30:01; [6]) of 0.25 µM.

KAQREIFSA was tested, and the IC50 (HLA-A*24:02; source organism: Variola virus) was 0.165 µM and the IC50 (HLA-A*02:01 [2]; source organism: Variola virus) was 2.01 µM.

KEENLVNSL showed a Kd (HLA-B*40:01; [5]) of 0.00217 µM.

KEIGRMLNIL was tested, and the Kd (HLA-B*40:01; [5]) was 0.00483 µM.

For KFRDMITFR, the Kd (HLA-A*01:01 [1]; source organism: Vibrio cholerae) was ≥ 20 µM.

For KLRGVAPL, the Kd (HLA-A*02:01 [3]; source organism: Influenza A virus (A/Swine/Indiana/1726/1988(H1N1))) was 2.25 µM.

KMFSNNVLI showed a Kd (HLA-A*32:01; [6]) of 0.0011 µM.

KQWFLDLPL was tested, and the Kd (HLA-A*32:01; [11]) was 0.0133 µM and the Kd (HLA-A*02:06) was 0.00751 µM.

KSKFPRSML was tested, and the Kd (HLA-A*30:01; [6]) was 0.0312 µM.

Work on KTMAPVHTY yielded a Kd (HLA-A*32:01; [6]) of 0.00455 µM.

Sequence KTTWLPVLL has a Kd (HLA-A*32:01; [11]) of 0.148 µM.

In the case of KVHADDIPV, the Kd (HLA-A*02:01 [3]; source organism: Escherichia coli) is reported as 0.0153 µM.

In the case of KVRTNAAMG, the Kd (HLA-A*30:01; [7]) is reported as 0.0113 µM.

LEIDFGECPG was tested, and the Kd (HLA-B*40:01; [8]) was 10.2 µM.

Work on LENIMWKQI yielded a Kd (HLA-B*44:02; [11]) of 0.115 µM and a Kd (HLA-B*44:03; [11]) of 0.204 µM.
